Laboratory results taken from the DeepSol protein solubility set.

Assay: soluble on expression in E. coli; label from the status in PepcDB or PDB records

Sequence	soluble on expression in E. coli
LSPLEARVIGCLIEKEVTTPDHYPLTLNSLTTACNQKSNREPVLNLSEAEVQDTVEGLIARRLVSDESSFNSRTSKYQHRFCNTEFGDLKLNQQELGLICCLLLRGAQTPGELRTRTNRLCTFTDVKETEAVLERLANRDSGALVVKLPREPGKRESRYHHLFCGEVDMAAFATSSDNE	not soluble
MPRYLGLMSGTSLDGMDIVLIEQGDRTTLLASHYLPMPAGLREDILALCVPGPDEIARAAEVEQRWVALAAQGVRELLLQQQMSPDEVRAIGSHGQTIRHEPARHFTVQIGNPALLAELTGIDVVADFRRRDVAAGGQGAPLVPAFHQALFGDDDTSRAVLNIGGFSNVSLLSPGKPVRGFDCGPGNVLMDAWIHHQRGEHFDRDGAWAASGQVNHALLASLLADEFFAARGPKSTGRERFNLPWLQEHLARHPALPAADIQATLLELSARSISESLLDAQPDCEEVLVCGGGAFNTALMKRLAMLMPEARVASTDEYGIPPAWMEGMAFAWLAHRFLERLPGNCPDVTGALGPRTLGALYPA	not soluble
MSLAQISSLFVTRLYHAPLSDHGPAIDAEEMESSCYAIAEDDEAGQGWCEENGYPGYTSYASLTDLPWRFPIFADLVKSLDAHVAAFAEDLEFDLDGRALELEDLWINILPEGGSHASHIHPHSVISGTTYVSMPGGTSALKLEDPRHAMMMAAPARRKTARDELRQFIYVTPAVGDVLLWESWLRHEVPMNMSEDDRISVSFNYRWAEGHHHHHH	soluble
SLSGGKYVDSEGHLYTVPIREQGNIYKPNNKAMADELSEKQVYDAHTKEIDLVNRDPKHLNDDVVKIDFEDVIAEPEGTHSFDGIWKASFSTFTVTKEG	soluble
MQDLGEVEEDPTELRIDVRHGFDTGPMNVQIAQLMQLATGRRRAPRQSSGSGIQLKIGGRIEVLSYQRKMHEAMKYLLGRLFGGKTVKVNHLAIGCKTILRIPTSFKLHVENLEILDTNTYNNMETVRLMIEASSLPLNMVKFRPTNFTTNNHPIVRTARMLYIHATSTRRRFRDFIEALARLKNIRVHVESRDLSSGSWYMTVFRCWMRYGKKVGTYYTFGTTEETINSAMKVFGRLYGSRTGFDGQITINLKKTSQVVIRKVQQENEWILGMKVESR	not soluble
MLLDKIQNLIIQSDISIFQSMKKMDEEKVKLLFVFRGDCFVGILTIGDIQRAIIKQNDTSMQINNILDQNKVFAYKGESLEIIKNKMIHLRAECMPILDSKGELVDVLFWKDLFIDEVRVDDRKIDLPVVIMAGGKGTRLKPLTNVIPKPLIPIGDKTILEAILDQFESIGCSKFYMSVNYKYDILKFYLAQLDHKYDIRFFKEDKPLGTIGSVSLLKDKISTPFFVSNCDIIIDQDYRDVYDYHINNSNDLTIVTAVKRTRIPYGVIETIENGLMTELIEKPEFTYMINSGVYILQPELINEIPENELFHITHLMEKVKSRGGKIGCFPVSEKSWTDIGEWNEYLKLLGILEHHHHHH	not soluble
QVQLQESGPGLVRPSQTLSLTCTVSGFSLTGYGVNWVRQPPGRGLEWIGMIWGDGNTDYNSALKSRVTMLKDTSKNQFSLRLSSVTAADTAVYYCARERDYRLDYWGQGSLVTVSSG	soluble
MITIEKYSPERHEQTCELSVLEEQSQFTVADVGEMLTRLEPTELPHLILADDDVVGFFLFDAAYSEKYDFCPKNSLGVRALLVDHRHQGKGIAKQAIQQFADFAKHHYPEFDALYLTVNCRNIPAYQCYLKSGFEDTNELYHGGPVGPQHIMRQPL	not soluble
MDSYTSSDEDASRKENEGLNMLNASPEPMEEDDPEEQAEQEEETSRMARPIRSMRKRETTSGESMGDEDEDLEDEEDEDEEAEAREHHESGAHDTSFSNPLSNVDNLIHVGTEYQAIIQPTAEQLEKEPCRDQQIWAFPDEMNENRLTEYISEATGRYQLPIDRALFILNKQSNDFDAAMVQAMRRKEIHDDWTAEEISLFSTCFFHFGKRFKKIHAAMPQRSLSSIIQYYYNTKKVQNYKTMINVHLNETDTYDELFKEVNHLERVPSGYCENCNAKSDLLILNRVMSRHECKPCILYFRLMRVPRPASLRALTKRRQRVLCPEYMKIYVYGYLELMEPANGKAIKRLGIGKEKEEDDDIMVVDDCLLRKPSGPYIVEQSIEADPIDENTCRMTRCFDTPAALALIDNIKRKHHMCVPLVWRVKQTKCMEENEILNEEARQQMFRATMTYSRVPKGEIANWKKDMMALKGRFERFTPELDTTATNGNRSGKVRINYGWSPEEKKNAIRCFHWYKDNFELIAELMATKTVEQIKKFYMDNEKLILESIDTYRAELKSKLGK	not soluble
